Measured values from patent US20230002480A1.

Assays:
Experiment in all cases: cell-based or functional assay
[1] = target: HIV-1 Env of pseudovirus 0260.v5.c36 (HIV-1)
[2] = target: HIV-1 Env of pseudovirus 1054_07_TC4_1499 (HIV-1)
[3] = target: HIV-1 Env of pseudovirus 249M B10 (HIV-1)
[4] = target: HIV-1 Env of pseudovirus 62357_14_D3_4589 (HIV-1)
[5] = target: HIV-1 Env of pseudovirus 6244_13_B5_4576 (HIV-1)
[6] = target: HIV-1 Env of pseudovirus 6535.3 (HIV-1)
[7] = target: HIV-1 Env of pseudovirus AC10.0.29 (HIV-1)
[8] = target: HIV-1 Env of pseudovirus BF1266.431a (HIV-1)
[9] = target: HIV-1 Env of pseudovirus CAP210.2.00.E8 (HIV-1)
[10] = target: HIV-1 Env of pseudovirus CAP45.2.00.G3 (HIV-1)
[11] = target: HIV-1 Env of pseudovirus CNE17 (HIV-1)
[12] = target: HIV-1 Env of pseudovirus CNE19 (HIV-1)
[13] = target: HIV-1 Env of pseudovirus CNE20 (HIV-1)
[14] = target: HIV-1 Env of pseudovirus CNE30 (HIV-1)
[15] = target: HIV-1 Env of pseudovirus CNE52 (HIV-1)
[16] = target: HIV-1 Env of pseudovirus CNE53 (HIV-1)
[17] = target: HIV-1 Env of pseudovirus CNE58 (HIV-1)
[18] = target: HIV-1 Env of pseudovirus Ce1086_B2 (HIV-1)
[19] = target: HIV-1 Env of pseudovirus Du172.17 (HIV-1)
[20] = target: HIV-1 Env of pseudovirus HIV-16845-2.22 (HIV-1)
[21] = target: HIV-1 Env of pseudovirus Q461.e2 (HIV-1)
[22] = target: HIV-1 Env of pseudovirus Q842.d12 (HIV-1)
[23] = target: HIV-1 Env of pseudovirus TRO.11 (HIV-1)
[24] = target: HIV-1 Env of pseudovirus WEAU_d15_410_787 (HIV-1)
[25] = target: HIV-1 Env of pseudovirus ZM135M.PL10a (HIV-1)
[26] = target: HIV-1 Env of pseudovirus ZM247v1(Rev-) (HIV-1)

PG16 (antibody)
IC50, titer in TZM.bl cells [1]: 1.54 µg/mL | IC80, titer in TZM.bl cells [1]: 36.1 µg/mL | IC50, titer in TZM.bl cells [2]: > 50 µg/mL | IC80, titer in TZM.bl cells [2]: > 50 µg/mL | IC50, titer in TZM.bl cells [3]: 0.026 µg/mL | IC80, titer in TZM.bl cells [3]: 1.25 µg/mL | IC50, titer in TZM.bl cells [4]: > 50 µg/mL | IC80, titer in TZM.bl cells [4]: > 50 µg/mL | IC50, titer in TZM.bl cells [5]: > 50 µg/mL | IC80, titer in TZM.bl cells [5]: > 50 µg/mL | IC50, titer in TZM.bl cells [6]: 0.653 µg/mL | IC80, titer in TZM.bl cells [6]: > 50 µg/mL | IC50, titer in TZM.bl cells [7]: 0.023 µg/mL | IC80, titer in TZM.bl cells [7]: 0.417 µg/mL | IC50, titer in TZM.bl cells [8]: 0.003 µg/mL | IC80, titer in TZM.bl cells [8]: 0.009 µg/mL | IC50, titer in TZM.bl cells [9]: 0.01 µg/mL | IC80, titer in TZM.bl cells [9]: 0.042 µg/mL | IC50, titer in TZM.bl cells [10]: 0.001 µg/mL | IC80, titer in TZM.bl cells [10]: 0.003 µg/mL | IC50, titer in TZM.bl cells [11]: 0.029 µg/mL | IC80, titer in TZM.bl cells [11]: 0.132 µg/mL | IC50, titer in TZM.bl cells [12]: 0.024 µg/mL | IC80, titer in TZM.bl cells [12]: 3.07 µg/mL | IC50, titer in TZM.bl cells [13]: 3.63 µg/mL | IC80, titer in TZM.bl cells [13]: 47.2 µg/mL | IC50, titer in TZM.bl cells [14]: > 50 µg/mL | IC80, titer in TZM.bl cells [14]: > 50 µg/mL | IC50, titer in TZM.bl cells [15]: 0.009 µg/mL | IC80, titer in TZM.bl cells [15]: 0.026 µg/mL | IC50, titer in TZM.bl cells [16]: > 50 µg/mL | IC80, titer in TZM.bl cells [16]: > 50 µg/mL | IC50, titer in TZM.bl cells [17]: 0.044 µg/mL | IC80, titer in TZM.bl cells [17]: 0.25 µg/mL | IC50, titer in TZM.bl cells [18]: > 50 µg/mL | IC80, titer in TZM.bl cells [18]: > 50 µg/mL | IC50, titer in TZM.bl cells [19]: 0.033 µg/mL | IC80, titer in TZM.bl cells [19]: 0.213 µg/mL | IC50, titer in TZM.bl cells [20]: 3.13 µg/mL | IC80, titer in TZM.bl cells [20]: > 50 µg/mL | IC50, titer in TZM.bl cells [21]: 1.75 µg/mL | IC80, titer in TZM.bl cells [21]: > 50 µg/mL | IC50, titer in TZM.bl cells [22]: 0.032 µg/mL | IC80, titer in TZM.bl cells [22]: > 0.25 µg/mL | IC50, titer in TZM.bl cells [23]: 1.92 µg/mL | IC80, titer in TZM.bl cells [23]: 49.6 µg/mL | IC50, titer in TZM.bl cells [24]: 0.435 µg/mL | IC80, titer in TZM.bl cells [24]: > 50 µg/mL | IC50, titer in TZM.bl cells [25]: > 50 µg/mL | IC80, titer in TZM.bl cells [25]: > 50 µg/mL | IC50, titer in TZM.bl cells [26]: 0.016 µg/mL | IC80, titer in TZM.bl cells [26]: 0.189 µg/mL

N49P9.1 (antibody)
IC50 [2]: 1.8 µg/mL | IC80 [2]: 7.2 µg/mL | MPI [2]: 100 | IC50 [3]: 0.305 µg/mL | IC80 [3]: 1.64 µg/mL | MPI [3]: 96 | IC50 [4]: 0.227 µg/mL | IC80 [4]: 1.09 µg/mL | MPI [4]: 99 | IC50 [5]: 0.343 µg/mL | IC80 [5]: 1.5 µg/mL | MPI [5]: 100 | IC50 [6]: 0.232 µg/mL | IC80 [6]: 2.06 µg/mL | MPI [6]: 100 | IC50 [7]: 0.36 µg/mL | IC80 [7]: 1.88 µg/mL | MPI [7]: 99 | IC50 [8]: 0.808 µg/mL | IC80 [8]: 3.14 µg/mL | MPI [8]: 95 | IC50 [9]: > 50 µg/mL | IC80 [9]: > 50 µg/mL | MPI [9]: 2 | IC50 [10]: 1.72 µg/mL | IC80 [10]: 19.6 µg/mL | MPI [10]: 88 | IC50 [11]: 0.251 µg/mL | IC80 [11]: 1.23 µg/mL | MPI [11]: 100 | IC50 [12]: 0.033 µg/mL | IC80 [12]: 0.146 µg/mL | MPI [12]: 100 | IC50 [13]: 1.51 µg/mL | IC80 [13]: 16.4 µg/mL | MPI [13]: 90 | IC50 [14]: 0.271 µg/mL | IC80 [14]: 0.971 µg/mL | MPI [14]: 100 | IC50 [15]: 0.043 µg/mL | IC80 [15]: 0.122 µg/mL | MPI [15]: 100 | IC50 [16]: 0.14 µg/mL | IC80 [16]: 0.647 µg/mL | MPI [16]: 99 | IC50 [17]: 0.027 µg/mL | IC80 [17]: 0.074 µg/mL | MPI [17]: 100 | IC50 [18]: 0.814 µg/mL | IC80 [18]: 4.08 µg/mL | MPI [18]: 96 | IC50 [19]: 0.026 µg/mL | IC80 [19]: 0.182 µg/mL | MPI [19]: 100 | IC50 [20]: 2.13 µg/mL | IC80 [20]: 10.7 µg/mL | MPI [20]: 98 | IC50 [21]: 0.363 µg/mL | IC80 [21]: 1.15 µg/mL | MPI [21]: 100 | IC50 [22]: 0.027 µg/mL | IC80 [22]: 0.075 µg/mL | MPI [22]: 100 | IC50 [23]: 0.052 µg/mL | IC80 [23]: 0.196 µg/mL | MPI [23]: 100 | IC50 [24]: 0.068 µg/mL | IC80 [24]: 0.253 µg/mL | MPI [24]: 100 | IC50 [25]: 0.332 µg/mL | IC80 [25]: 1.53 µg/mL | MPI [25]: 98 | IC50 [26]: 1.88 µg/mL | IC80 [26]: 17.8 µg/mL | MPI [26]: 87
